Target: T1, Human NUB1L (amino acids 2-615) (human, UniProt Q9Y5A7-1 2-615)
T1 construct: NUB1L, the long isoform of NEDD8-ultimate buster 1, human, amino acids 2-615 (615 residues in the long isoform); Details are in the Supporting Information; also called NEDD8-ultimate buster 1 long isoform; natural abundance NUB1L; source: E. coli BL21-CodonPlus(DE3)-RIPL, LB medium, purified (same steps as for N-FAT10-C0)
T1 sequence (looked up): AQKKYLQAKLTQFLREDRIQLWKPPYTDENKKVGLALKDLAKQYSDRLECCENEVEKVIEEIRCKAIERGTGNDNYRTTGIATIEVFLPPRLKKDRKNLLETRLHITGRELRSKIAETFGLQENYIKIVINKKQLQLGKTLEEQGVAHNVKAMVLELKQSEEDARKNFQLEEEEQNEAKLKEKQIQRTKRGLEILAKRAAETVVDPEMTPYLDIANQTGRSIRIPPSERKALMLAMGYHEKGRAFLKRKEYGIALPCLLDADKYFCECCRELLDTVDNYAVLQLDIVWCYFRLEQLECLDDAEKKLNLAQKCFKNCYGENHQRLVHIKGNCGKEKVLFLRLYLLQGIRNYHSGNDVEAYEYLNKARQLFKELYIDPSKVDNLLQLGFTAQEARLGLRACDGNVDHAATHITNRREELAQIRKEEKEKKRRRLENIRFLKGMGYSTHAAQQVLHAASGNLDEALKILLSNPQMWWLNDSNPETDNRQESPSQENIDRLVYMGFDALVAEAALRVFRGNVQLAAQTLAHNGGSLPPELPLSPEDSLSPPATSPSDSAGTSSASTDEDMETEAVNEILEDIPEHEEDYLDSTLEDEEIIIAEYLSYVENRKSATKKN
Experiment: SEC; size-exclusion chromatography (with SDS-PAGE) of N-FAT10-C0 with NUB1L, Figure S1; conditions are in the Supporting Information
Settings: both partners purified

B1: Cys-free N-domain of human FAT10 (amino acids 5-86; C7T, C9T) (domain or fragment)
chain: GASTLTVHVRSEEWDLMTFDANPYDSVKKIKEHVRSKTKVPVQDQVLLLGSKILKPRRSLSSYGIDKEKTIHLTLKVVKPSDE
notes: additional glycine residue at the N-terminus that remains from the TEV protease cleavage site; FAT10 (human leukocyte antigen F adjacent transcript 10), human, N-domain, amino acids 5-86, with C7T and C9T; 83 residues together with the extra glycine; Uniformly 13C,15N labelled (M9 medium with U-13C6-D-glucose and 15N-ammonium chloride) for MAS NMR; Detailed protocols are in the Supporting …
Q: Does B1 bind?
A: binds

— PMC13244463, “Intermolecular β‑sheet Formation Guides the Interaction between Ubiquitin-like Modifier FAT10 and Adapter Protein NUB1L” (Journal of the American Chemical Society, 2026)
